Abundance fitness data for 109 variants are collected here from the Human Domainome abundance scans (Beltran et al. 2025).

± gives the uncertainty stated by the source.

B1: Homeobox expressed in ES cells 1, residues 110 to 165; numbered along this chain, Q9UBX0 (parent)
chain: RPRTAFTQNQIEVLENVFRVNCYPGIDIREDLAQKLNLEEDRIQIWFQNRRAKLKR

Variants of B1 are the subject of this data set. Put plainly: abundance fitness (aPCA) (normalised: wild type 0, dead -1); higher = more abundant; growth selection in yeast, the domain comes from the species named. As to conditions: Homo sapiens.
With R50K, the abundance fitness was -0.39 ± 0.34.

R50P: the abundance fitness was -0.954 ± 0.41.

With R50Q, the abundance fitness stood at 0.153 ± 0.2.

Turning to R50T, the abundance fitness is -0.236 ± 0.24.

For the variant R50L, the abundance fitness was -0.818 ± 0.38.

On to R50N, for which the abundance fitness is -0.378 ± 0.3.

As to R50D, the abundance fitness is -0.443 ± 0.22.

Consider R50V, for which the abundance fitness is -0.727 ± 0.21.

Consider K53I, for which the abundance fitness was -0.156 ± 0.24.

Turning to K53L, the abundance fitness is -0.067 ± 0.071.

In the case of K53N, the abundance fitness is -0.284 ± 0.41.

K53E: the abundance fitness was 0.176 ± 0.15.

Turning to K53T, the abundance fitness is -0.115 ± 0.14.

Consider K53S, for which the abundance fitness is -0.017 ± 0.083.

K53R: the abundance fitness was 0.059 ± 0.086.

For the variant K53M, the abundance fitness is -0.075 ± 0.15.

For K53Q, the abundance fitness came out at 0.267 ± 0.13.

As for K53C, the abundance fitness is -0.459 ± 0.18.

With K53P, the abundance fitness was -0.345 ± 0.29.

On to K53D, for which the abundance fitness was -0.067 ± 0.26.

On to K53W, for which the abundance fitness was -0.405 ± 0.16.

Consider K53V, for which the abundance fitness is -0.229 ± 0.19.

Consider K53G, for which the abundance fitness was -0.141 ± 0.079.

K53Y: the abundance fitness is -0.492 ± 0.15.

On to K53F, for which the abundance fitness was -0.326 ± 0.37.

On to F47C, for which the abundance fitness is -0.851 ± 0.28.

As to F47L, the abundance fitness is -0.842 ± 0.19.

With F47S, the abundance fitness is -0.724 ± 0.37.

With F47I, the abundance fitness was -0.449 ± 0.18.

Consider F47E, for which the abundance fitness was -0.942 ± 0.32.

Turning to F47V, the abundance fitness is -0.841 ± 0.25.

Take F47Y: the abundance fitness is -0.455 ± 0.49.

For F47W, the abundance fitness was -0.908 ± 0.44.

For the variant F47A, the abundance fitness was -0.698 ± 0.17.

As to F47R, the abundance fitness was -0.952 ± 0.2.

With F47G, the abundance fitness is -0.855 ± 0.09.

Turning to F47D, the abundance fitness was -0.576 ± 0.46.

With W46C, the abundance fitness is -1.15 ± 0.25.

Take W46E: the abundance fitness is -0.751 ± 0.31.

On to W46F, for which the abundance fitness was -0.547 ± 0.33.

On to W46Y, for which the abundance fitness worked out at 0.48 ± 0.26.

With W46T, the abundance fitness is -0.721 ± 0.36.

In the case of W46G, the abundance fitness was -1.07 ± 0.18.

Regarding W46L, the abundance fitness was -0.895 ± 0.29.

As for W46S, the abundance fitness was -0.595 ± 0.26.

Take W46V: the abundance fitness was -0.928 ± 0.29.

Take W46H: the abundance fitness is -0.58 ± 0.36.

In the case of W46D, the abundance fitness is -0.428 ± 0.4.

With W46A, the abundance fitness is -0.693 ± 0.1.

In the case of W46K, the abundance fitness was -0.925 ± 0.44.

Turning to W46P, the abundance fitness is -0.361 ± 0.26.

Turning to A52L, the abundance fitness is -0.499 ± 0.25.

As to A52C, the abundance fitness was -0.143 ± 0.17.

Turning to A52V, the abundance fitness is -0.348 ± 0.076.

On to A52T, for which the abundance fitness is 0.172 ± 0.13.

Regarding A52S, the abundance fitness was -0.104 ± 0.19.

In the case of A52K, the abundance fitness was -0.064 ± 0.086.

For the variant A52F, the abundance fitness was -0.361 ± 0.15.

A52R: the abundance fitness is -0.194 ± 0.14.

In the case of A52M, the abundance fitness was -0.269 ± 0.26.

With A52H, the abundance fitness was -0.05 ± 0.21.

A52W: the abundance fitness was -0.505 ± 0.15.

For A52D, the abundance fitness was -0.044 ± 0.22.

With A52G, the abundance fitness was -0.205 ± 0.12.

Consider A52E, for which the abundance fitness is 0.059 ± 0.19.

In the case of A52N, the abundance fitness is -0.03 ± 0.17.

Turning to R51T, the abundance fitness was -0.301 ± 0.23.

Take R51D: the abundance fitness came to 0.168 ± 0.45.

Turning to R51S, the abundance fitness was -0.491 ± 0.27.

For R51V, the abundance fitness is -0.243 ± 0.079.

As for R51M, the abundance fitness is -0.109 ± 0.12.

Turning to R51K, the abundance fitness is -0.577 ± 0.27.

Take R51L: the abundance fitness was -0.752 ± 0.24.

On to R51Q, for which the abundance fitness was -0.43 ± 0.3.

Take R51N: the abundance fitness is -0.131 ± 0.19.

Consider R51E, for which the abundance fitness is -0.632 ± 0.12.

Regarding R51I, the abundance fitness was -0.336 ± 0.31.

Take R51Y: the abundance fitness was -0.782 ± 0.16.

Consider R51A, for which the abundance fitness is -0.424 ± 0.17.

Take R51G: the abundance fitness is -0.671 ± 0.18.

Consider R51C, for which the abundance fitness is -0.368 ± 0.12.

For the variant Q48G, the abundance fitness was -0.461 ± 0.092.

For the variant Q48R, the abundance fitness amounted to 0.142 ± 0.12.

In the case of Q48P, the abundance fitness was -0.658 ± 0.5.

With Q48K, the abundance fitness was 0.114 ± 0.17.

Consider Q48A, for which the abundance fitness was found to be 0.233 ± 0.13.

With Q48V, the abundance fitness is -0.026 ± 0.12.

For the variant Q48N, the abundance fitness was -0.307 ± 0.34.

As to Q48T, the abundance fitness is 0.299 ± 0.14.

For the variant Q48E, the abundance fitness was -0.098 ± 0.12.

Consider Q48M, for which the abundance fitness is -0.073 ± 0.097.

Take Q48S: the abundance fitness was -0.001 ± 0.14.

Regarding Q48H, the abundance fitness was -0.287 ± 0.33.

For the variant Q48I, the abundance fitness is -0.23 ± 0.22.

Consider Q48C, for which the abundance fitness is -0.466 ± 0.17.

In the case of L54D, the abundance fitness is -0.071 ± 0.13.

With L54V, the abundance fitness was -0.082 ± 0.13.

On to L54E, for which the abundance fitness turned out to be 0.203 ± 0.085.

Consider L54C, for which the abundance fitness is -0.031 ± 0.11.

L54Q: the abundance fitness amounted to 0.01 ± 0.16.

Take L54W: the abundance fitness is -0.205 ± 0.084.

Take L54I: the abundance fitness stood at 0.074 ± 0.08.

As for L54G, the abundance fitness turned out to be 0.319 ± 0.1.

As for L54R, the abundance fitness was -0.596 ± 0.079.

Regarding L54F, the abundance fitness was determined as 0.312 ± 0.17.

For the variant L54P, the abundance fitness was 0.222 ± 0.19.

Regarding L54K, the abundance fitness is -0.119 ± 0.14.

Take L54A: the abundance fitness is -0.34 ± 0.12.

Regarding L54M, the abundance fitness was -0.195 ± 0.22.
